Test results taken from IntAct's records for PubMed 17431395.

Target: T1, goga2_human GOLGA2 (UniProt Q08379)
T1 sequence: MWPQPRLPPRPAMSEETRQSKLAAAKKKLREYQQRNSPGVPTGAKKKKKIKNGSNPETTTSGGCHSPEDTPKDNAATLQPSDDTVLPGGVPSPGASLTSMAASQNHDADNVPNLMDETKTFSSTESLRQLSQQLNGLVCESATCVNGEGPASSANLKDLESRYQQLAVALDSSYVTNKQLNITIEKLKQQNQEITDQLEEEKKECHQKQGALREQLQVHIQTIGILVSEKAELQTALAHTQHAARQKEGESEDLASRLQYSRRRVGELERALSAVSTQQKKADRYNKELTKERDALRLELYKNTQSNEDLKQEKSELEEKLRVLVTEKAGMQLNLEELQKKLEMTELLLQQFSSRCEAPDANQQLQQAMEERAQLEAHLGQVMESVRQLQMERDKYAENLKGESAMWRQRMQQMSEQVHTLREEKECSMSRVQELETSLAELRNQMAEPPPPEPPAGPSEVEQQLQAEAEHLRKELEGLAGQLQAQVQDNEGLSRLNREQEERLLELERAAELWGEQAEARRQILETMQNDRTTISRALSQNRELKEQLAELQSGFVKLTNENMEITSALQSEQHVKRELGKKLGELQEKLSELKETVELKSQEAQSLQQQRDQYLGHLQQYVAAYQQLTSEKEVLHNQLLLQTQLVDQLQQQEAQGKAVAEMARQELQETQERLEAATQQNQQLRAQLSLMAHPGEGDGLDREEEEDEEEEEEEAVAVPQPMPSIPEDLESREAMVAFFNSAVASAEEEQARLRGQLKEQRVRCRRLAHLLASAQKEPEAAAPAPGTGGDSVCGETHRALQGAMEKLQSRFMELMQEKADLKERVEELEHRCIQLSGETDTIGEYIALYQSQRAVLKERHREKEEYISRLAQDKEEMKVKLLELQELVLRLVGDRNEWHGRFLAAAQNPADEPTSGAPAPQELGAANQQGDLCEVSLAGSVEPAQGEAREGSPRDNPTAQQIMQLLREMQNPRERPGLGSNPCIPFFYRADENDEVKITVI

effect of a mutation on the interaction: disrupting interaction
Substance: Transthyretin (Homo sapiens) (from UniProt P02766) D38E
